Assay [1] has as its target Methionine γ-lyase from Yarrowia lipolytica (yMGL) (Yarrowia lipolytica). Description: SEC + other: dynamic light scattering.
The target is the same in assay [2]. Description: crystal structure.
Assay [3] has as its target yMGL-ΔCTD (yMGL with the C-terminal residues 253-380 deleted) (Yarrowia lipolytica). Description: SEC + other: dynamic light scattering.

In the case of “Methionine γ-lyase from Yarrowia lipolytica (yMGL) (enzyme)”, the stoichiometry N is 4 in assay [1] and 2 in assay [2]. Consider “yMGL-ΔCTD (yMGL with the C-terminal residues 253-380 deleted) (domain or fragment)”, for which the stoichiometry N in assay [3] was 6.
